Experimental data from the supplement of paper PMC10567573.

B1: HESX1 (parent)
chain: SKYENYFSASERLSLKRELSWYRG

Variants of: B1
Assay: protein stability index of a GFP-peptide fusion (GPS, HEK-293T) (PSI 1-6); higher = more stable
Conditions: c terminus: a fixed tail appended
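Note: lentivirally expressed fusions sorted by FACS into six bins by GFP to DsRed ratio, PSI derived from sequencing read proportions per bin multiplied by bin number.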

| Variant | protein stability index |
| --- | --- |
| SKYENYFSASERLSLKYELSWYRG [R17Y] | 2.66 |
| SKYENYFSASERLSLKTELSWYRG [R17T] | 1.9 |
| SKYENYFSASERLSLKSELSWYRG [R17S] | 1.56 |
| SKYENYFSASERLSLKNELSWYRG [R17N] | 1.76 |
| SKYENYFSASERLSLKVELSWYRG [R17V] | 3.72 |
| SKYENYFSASERLSLKEELSWYRG [R17E] | 1.91 |
| SKYENYFSASERLSLKDELSWYRG [R17D] | 2.21 |
| SKYENYFSASERLSLKHELSWYRG [R17H] | 2.1 |
| SKYENYFSASERLSLKQELSWYRG [R17Q] | 2.29 |
| SKYENYFSASERLSLKMELSWYRG [R17M] | 2.72 |
| SKYENYFSASERLSLKGELSWYRG [R17G] | 1.78 |
| SKYENYFSASERLSLKCELSWYRG [R17C] | 1.61 |
| SKYENYFSASERLSLKKELSWYRG [R17K] | 2.27 |
| SKYENYFSASERLSLKRELSKYRG [W21K] | 1.75 |
| SKYENYFSASERLSLKRELSNYRG [W21N] | 2.27 |
| SKYENYFSASERLSLKRELSDYRG [W21D] | 3.19 |
| SKYENYFSASERLSLKRELSMYRG [W21M] | 2.31 |
| SKYENYFSASERLSLKRELSCYRG [W21C] | 2.2 |
| SKYENYFSASERLSLKRELSGYRG [W21G] | 1.48 |
| SKYENYFSASERLSLKRELSAYRG [W21A] | 4.19 |
| SKYENYFSASERLSLKRELSVYRG [W21V] | 2.2 |
| SKYENYFSASERLSLKRELSHYRG [W21H] | 1.73 |
| SKYENYFSASERLSLKRELSYYRG [W21Y] | 2.4 |
| SKYENYFSASERLSLKRELSFYRG [W21F] | 2.29 |

| Variant | protein stability index |
| --- | --- |
| SKYENYFSASERLSLKRELSIYRG [W21I] | 3.04 |
| SKYENYFSASERLSLKRELSPYRG [W21P] | 2.39 |
| SKYENYFSASERLSLKRELSTYRG [W21T] | 2.46 |
| SKYENYFSASERLSLKRELSSYRG [W21S] | 2.65 |
| SKYENYFSASERLSLKRELSQYRG [W21Q] | 2.63 |
| SKYENYFSASERLSLKRNLSWYRG [E18N] | 2.06 |
| SKYENYFSASERLSLKRQLSWYRG [E18Q] | 1.52 |
| SKYENYFSASERLSLKRGLSWYRG [E18G] | 1.87 |
| SKYENYFSASERLSLKRCLSWYRG [E18C] | 1.43 |
| SKYENYFSASERLSLKRILSWYRG [E18I] | 1.75 |
| SKYENYFSASERLSLKRHLSWYRG [E18H] | 1.77 |
| SKYENYFSASERLSLKRDLSWYRG [E18D] | 1.82 |
| SKYENYFSASERLSLKRKLSWYRG [E18K] | 1.99 |
| SKYENYFSASERLSLKRPLSWYRG [E18P] | 2.07 |
| SKYENYFSASERLSLKRSLSWYRG [E18S] | 1.38 |
| SKYENYFSASERLSLKRRLSWYRG [E18R] | 2.5 |
| SKYENYFSASERSSLKRELSWYRG [L13S] | 2.07 |
| SKYENYFSASERYSLKRELSWYRG [L13Y] | 1.93 |
| SKYENYFSASERVSLKRELSWYRG [L13V] | 2.72 |
| SKYENYFSASERLSLKRELSWYRD [G24D] | 2.12 |
| SKYENYFSASERLSLKRELSWYRH [G24H] | 2.11 |
| SKYENYFSASERLSLKRELSWYRV [G24V] | 2.01 |
| SKYENYFSASERLSLKRELSWYRN [G24N] | 1.66 |
| SKYENYFSASERLSLKRELSWYRL [G24L] | 1.35 |

| Variant | protein stability index |
| --- | --- |
| SKYENYFSASERLSLKRELSWYRE [G24E] | 2.46 |
| SKYENYFSASERLSLKRELSWYRY [G24Y] | 1.45 |
| SKYENYFSASERLSLKRELSWYRT [G24T] | 2.07 |
| SKYENYFSASERLSLKRELSWYRA [G24A] | 1.81 |
| SKYENYFSASERLSLKRELSWYRI [G24I] | 1.81 |
| SKYENYFSASERLSLKRELSWYRK [G24K] | 2.74 |
| SKYENYFSASERLSLKRELSWYRP [G24P] | 2.46 |
| SKYENYFSASERLSLSRELSWYRG [K16S] | 1.9 |
| SKYENYFSASERLSLHRELSWYRG [K16H] | 1.78 |
| SKYENYFSASERLSLNRELSWYRG [K16N] | 2.17 |
| SKYENYFSASERLSLARELSWYRG [K16A] | 2.32 |
| SKYENYFSASERLSLYRELSWYRG [K16Y] | 1.94 |
| SKYENYFSASERLSLFRELSWYRG [K16F] | 1.37 |
| SKYENYFSASERLSLRRELSWYRG [K16R] | 1.42 |
| SKYENYFSASERLSLIRELSWYRG [K16I] | 1.8 |
| SKYENYFSASERLSLTRELSWYRG [K16T] | 1.95 |
| SKYENYFSASERLSLLRELSWYRG [K16L] | 2.21 |
| SKYENYFSASERLSLPRELSWYRG [K16P] | 3.04 |
| SKYENYFSASERLSLVRELSWYRG [K16V] | 2.16 |
| SKYENYFSASERLPLKRELSWYRG [S14P] | 2.96 |
| SKYENYFSASERLELKRELSWYRG [S14E] | 2.14 |
| SKYENYFSASERLHLKRELSWYRG [S14H] | 1.99 |
| SKYENYFSASERLYLKRELSWYRG [S14Y] | 1.92 |
| SKYENYFSASERLFLKRELSWYRG [S14F] | 1.73 |

| Variant | protein stability index |
| --- | --- |
| SKYENYFSASERLNLKRELSWYRG [S14N] | 2.25 |
| SKYENYFSASERLQLKRELSWYRG [S14Q] | 2.36 |
| SKYENYFSASERLCLKRELSWYRG [S14C] | 2.07 |
| SKYENYFSASERLMLKRELSWYRG [S14M] | 1.74 |
| SKYENYFSASERLLLKRELSWYRG [S14L] | 1.02 |
| SKYENYFSASERLILKRELSWYRG [S14I] | 1.27 |
| SKYENYFSASERLWLKRELSWYRG [S14W] | 2.21 |
| SKYENYFSASERLGLKRELSWYRG [S14G] | 1.33 |
| SKYENYFSASERLRLKRELSWYRG [S14R] | 2.03 |
| SKYENYFSASERLDLKRELSWYRG [S14D] | 3.59 |
| SKYENYFSASERLSLKRELSWYNG [R23N] | 1.94 |
| SKYENYFSASERLSLKRELSWYFG [R23F] | 2.16 |
| SKYENYFSASERLSLKRELSWYYG [R23Y] | 1.12 |
| SKYENYFSASERLSLKRELSWYSG [R23S] | 2.1 |
| SKYENYFSASERLSLKRELSWYWG [R23W] | 1.83 |
| SKYENYFSASERLSLKRELSWYCG [R23C] | 1.53 |
| SKYENYFSASERLSLKRELSWYQG [R23Q] | 2.51 |
| SKYENYFSASERLSLKRELSWYPG [R23P] | 2.18 |
| SKYENYFSASERLSLKRELSWYHG [R23H] | 2.3 |
| SKYENYFSASERLSLKRELSWYAG [R23A] | 1.85 |
| SKYENYFSASERLSLKRELSWYDG [R23D] | 2.1 |
| SKYENYFSASERLSLKRELSWYKG [R23K] | 2.14 |
